Test results from PMC10411625, “Rationally designed stapled peptides allosterically inhibit PTBP1–RNA-binding†” (Chemical Science, 2023).
Each block holds one binder with its values, some of them ahead of it. Positions of bridges follow the written chain, without caps; N, C: chain ends. Non-standard residues stand in square brackets, D forms with d. No end group written: not given here. S5 = C=CCCC[C@](C)(N)C(=O)O

Assays:
Conditions in all cases: both partners purified
[1] = target: T1, PTBP1 RRM1 (single first RNA-recognition motif with the α3-helix) (human); experiment: fluorescence polarisation; direct binding: FITC-labelled P-6F titrated with the PTBP1 construct
T1 chain: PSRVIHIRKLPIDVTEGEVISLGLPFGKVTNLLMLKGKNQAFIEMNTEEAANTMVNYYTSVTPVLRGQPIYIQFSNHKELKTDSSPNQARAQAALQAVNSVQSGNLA

PTBP1 RRM12–L151G mutant [2] = target: PTBP1 RRM12–L151G mutant (human); experiment: as above
[3] = target: T1, PTBP1 RRM1 (single first …); experiment: MST; microscale thermophoresis of P-6F with the PTBP1 constructs
PTBP1 RRM12–L151G mutant [4] = target: PTBP1 RRM12–L151G mutant (human); experiment: as above
[5] = target: T2, PTBP1 RRM1 and 2 combined (RRM12) (human); experiment: fluorescence polarisation; competitive: peptide varied against RRM12 and the FAM-labelled RNA-2 tracer; Ki from loss of RNA binding
T2 construct: Methods and construct limits are not in the main text (supplementary file)

Kd [1]: 18.6 µM
Kd (PTBP1 RRM12–L151G mutant [2]): 20.4 µM
Kd [3]: 98.1 µM
Kd (PTBP1 RRM12–L151G mutant [4]): 44.5 µM
B1: P-6F, FITC-labeled variant of P-6 (peptide)
chain: NQARAQAALQAVN
modifications: also: stitched hydrocarbon staple linking residues 145, 149 and 153, FITC label, place not given here

Ki [5]: 11.6 µM
B2: P-2, i, i + 4 hydrocarbon-stapled peptide derived from the PTBP1 α3-helix (peptide)
chain: NQ[S5]RAQ[S5]ALQAVN-NH2
modifications: staple 3-7; also: staple alkene reduced
